# Data as given in patent US20250282887A1 (Amgen, published 2025).
# T1: Human MAGEB2 (Melanoma-associated antigen B2) (human, UniProt O15479 1-319)
# T1 construct: Intracellular antigen detected by IHC in FFPE material: CHO cells transfected with human MAGEB2 (mCherry vector with Myc/DDK tags, or ORF without tags)
# T1 sequence: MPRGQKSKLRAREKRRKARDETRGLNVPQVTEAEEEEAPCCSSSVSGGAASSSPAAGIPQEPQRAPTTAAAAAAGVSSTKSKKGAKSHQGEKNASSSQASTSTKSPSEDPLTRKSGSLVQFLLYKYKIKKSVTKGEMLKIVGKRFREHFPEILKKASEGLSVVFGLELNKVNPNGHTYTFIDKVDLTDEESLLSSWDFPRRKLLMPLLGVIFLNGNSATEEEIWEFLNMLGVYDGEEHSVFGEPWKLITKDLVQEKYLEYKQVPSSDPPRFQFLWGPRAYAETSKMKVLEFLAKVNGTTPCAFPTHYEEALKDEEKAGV
# T2: huMAGEB2(1-319), biotinylated full length MAGEB2 protein (human, UniProt O15479 1-319, biotinylated with recombinant BirA (site not stated))
# T2 construct: Expressed in E. coli from pET23; N-terminal 6xHis tag removed with caspase 3; also called Biotinylated MAGEB2 full length protein
# T2 sequence: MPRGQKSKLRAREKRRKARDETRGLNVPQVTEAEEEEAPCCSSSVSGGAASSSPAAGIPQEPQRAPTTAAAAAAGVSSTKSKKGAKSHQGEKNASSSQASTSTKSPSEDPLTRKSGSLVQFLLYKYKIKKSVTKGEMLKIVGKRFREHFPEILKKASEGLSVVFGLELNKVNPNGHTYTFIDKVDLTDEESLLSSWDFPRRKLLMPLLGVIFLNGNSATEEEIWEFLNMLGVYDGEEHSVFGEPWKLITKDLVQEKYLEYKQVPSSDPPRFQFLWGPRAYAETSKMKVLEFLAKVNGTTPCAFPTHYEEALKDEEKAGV
# Legend:
# [1] = molecular target: T1, Human MAGEB2 (Melanoma-associated …); assay: IHC, antibody supernatant on FFPE CHO cells transfected with human MAGEB2
# Source text: Negative control cells included parental Chinese hamster ovary (CHO) cells, CHO cells stably transfected with mCherry Vector Control (minus Myc/DDK tags), CHO cells stably transfected with mCherry-human DCAF4L2 (plus Myc/DDK tags). The cross-reactivity control cells included CHO cells transfected with mCherry Vector Control (plus Myc/DDK tags) with one of the human MAGE-B or MAGE-A family members (MAGEA1, MAGEA2, MAGEA3, MAGEA4, MAGEA5, MAGEA6, MAGEA8, MAGEA9, MAGEA11, MAGEA12, MAGEB1, MAGEB3, MAGEB4, MAGEB5, MAGEB6, MAGEB10, MAGEB16, MAGEB17, MAGEB18). Positive control cell lines included CHO cells transfected with mCherry Vector (plus Myc/DDK tags) with human MAGE-B2 or CHO cells transfected with mCherry Vector (open reading frame (ORF); minus Myc/DDK tags) with human MAGEB2, and thirteen human cancer cell lines with known endogenous RNA expression level of MAGEB2 (U266B1, T98G, KMM-1, U20S, CFPAC-1, SCaBER, UACC-257, CFPAC-1, VMRC-LCD, NCI-H1703, UM-UC-3, NCI-H1395, NCIH82).
# FFPE samples were sectioned at 4 μm and mounted on positive charged glass slides. After mounting, paraffin sections were air-dried at room temperature. FFPE TMA samples were received as freshly sectioned and mounted on glass slides. The fully automated IHC assay was performed on a Discovery Ultra Stainer (Ventana Medical Systems, Tucson, AZ) using Ventana Anti-Rabbit HQ (cat #760-4815), Ventana Anti-HQ HRP (cat #760-4820), and Ventana Antibody Diluent with Casein (cat #760-219) (Ventana Medical Systems, Tucson, AZ). The slides were baked on the Discovery Ultra Stainer at 60° C. for 8 minutes, de-paraffinized with Ventana Discovery wash (cat #950-510) for 3 cycles (8 minutes each) at 69° C., and underwent cell conditioning (target retrieval) at 95° C. for 16 minutes (for cell arrays) or 32 minutes (tissues or TMAs) in CC1 buffer (cat #950-500). Following this, slides were incubated with Background Sniper (cat #BS966M, Biocare Medical, Pacheco, CA) in a Ventana Option Prep kit (cat #771-751) for 28 minutes, incubated with CM inhibitor (a part of the Ventana DAB kit cat #760-159) for 12 minutes, and incubated for 1 h at RT with MAGE-B2 antibody diluted with Ventana diluent with Casein in a Ventana Prep kit (cat #770-001) (working concentration at 0.1 μg/ml for cell pellet, or 1-5 ug/ml for tissues) or with a matched concentration of isotype control Rabbit IgG1 antibody.
# [2] = molecular target: T2, huMAGEB2(1-319), biotinylated full …; assay: limited antigen FACS; biotinylated full length MAGEB2 on LumAvidin beads; B-cell supernatant
# Description: Biotinylated MAGEB2 full length protein was titrated 1:2 across 6 different limited antigen concentrations and then coated onto six different LumAvidin beads in FACS buffer [1×PBS+2% fetal bovine serum (Hyclone Cat No. SH30396.03)] for 30 minutes at room temperature in the dark. The beads were then washed twice in FACS buffer by centrifugation for 2 min at 3500 RPM. The coated beads were resuspended and pooled together (6-plex) and added to the rabbit B-cell supernatants at a 1:2 final dilution onto Corning 3897 96 well V-bottom polystyrene plates and incubated overnight at room temperature in the dark. […] A final wash was done before plates were read on the iQue FACS machine with Intellicyte autosampler to obtain flow cytometry measurements according to the manufacturer's recommendations; data analysis was done on Intellicyt ForeCyt® Enterprise Client Edition 6.2 (R3).
Binder,binding result [1],binding result [2]
"7H4 (antibody, IgG1, V domains shown, Rabbit monoclonal IgG1) VH: QSLEESGGGLVKPGASLTLTCKASGSDFRSYYYICWVRQAPGKGLEWVACIGGGNTDATAYARWAKGRFTISKTSATTVALQMTSLTAADTATYFCVRGGPDNNVQFNLWGPGTLVTVSS VL: QAVVTQTPSSVSAAVGGTVTISCQSSQSVYSNNLLSWYQQKPGQPPKLLIYKASTLASGVPSRLKGSGSGTQFTLTISEVQCDDAATYYCQGYYSGVIYMFGGGTEVVVK",binds,binds
"7B20 (antibody, IgG1, V domains shown, Rabbit monoclonal IgG1) VH: QSLEESGGGLVKPGASLTLTCKASGSDLSSAYYICWIRQAPGKGLEWVACIGGVNRVATAYATWAKGRFTISKTSSTTVTLQMTSLTAADTATYFCVRGGPDNNVQFNLWGPGTLVTVSS VL: AQVLTQTPASVSAAVGGTVTISCQSSQSVYSSDLLSWYQQKPGQPPKLLIYKASTLASGVPSRFKGSGSGTQFTLTISELQCDDAATYYCQGYYSGVVYIFGGGTEVVVK",binds,binds
"4G8 (antibody, IgG1, V domains shown, Rabbit monoclonal IgG1) VH: QEQLVESGGGLVQPEGSLTLTCAASGFSFSSSYFMCWVRQAPGKGLEWIACIAVGSSGSTYYASWAKGRFTISKTSSTTVTLQMTSLTAADTATYFCARVGYDDYGDSDAFDPWGPGTLVTVSS VL: AAVLTQTPSPVSAAVGGTVTINCQSSKSVYNKNWLSWFQQKPGQPPKLLIYGASTLASGVPSRFKGSGSGTQFTLTISDVQCDDVATYYCAGGYSSSSDTFAFGGGTEVVVK",binds,binds
"1I23 (antibody, IgG1, V domains shown, Rabbit monoclonal IgG1) VH: QEQLVESGGGLVQPKGSLTLTCAASGFSFSSSYFMCWVRQAPGKGLEWIACIGSGSSAISTFYASWAQGRFTISKTSSTTVTLQMTSLTAADTATYFCARVGYDDYGDSDAFDPWGPGTLVTVSS VL: AAVLTQTPSPVSAAVGGTVSISCQSSKSVYNKNWLSWFQQKPGQPPKLLIYGASTLASGVPSRFKGSGSGTQFTLTISDVQCDDAATYYCAGGYSSSSDTFAFGGGTEVVVK",binds,binds
"4A7 (antibody, IgG1, V domains shown, Rabbit monoclonal IgG1) VH: QEQLVESGGGLVQPEGSLTLTCAASGFSFSSSYFMCWVRQAPGKGLEWIACIGVGGSGSTYYANWAKGRFTISKTSSTTVTLQMTSLTAADTATYFCARVAYDDDGDSDAFDPWGPGTLVTVSS VL: AAVLTQTPSPVSAAVGGTVSISCQSSKSVYNKNWLSWFQQKPGQPPKLLIYGASTLASGVPSRFKGSGSGTQFTLTISGVQCDDAATYYCAGGYSSSSDTFAFGGGTEVVVK",binds,binds
"1J16 (antibody, IgG1, V domains shown, Rabbit monoclonal IgG1) VH: QSLEESGGGLVQPEGSLTVTCTAFGVTLTNYYICWVRQAPGKGLEWIGCIDNINGRTYYASWAKGRFTISKTSSTTGTLQMTSLTAADTATYFCARSLATPLWGPGTLVTVSS VL: DIVMTQTPASVEAAVGGTVTIKCQASQSISSYLAWYHQKPGQPPKLLIYAASTLASGVPSRFEGSGSGTQFTLTISDLECADAATYYCQSYDDSRSSSFFYAFGGGTEVVVK",binds,binds
"1H24 (antibody, IgG1, V domains shown, Rabbit monoclonal IgG1) VH: QSLEESGGGLVQPEGSLTLTCTASGFTLNNYYICWVRQAPGKGLEWIACIDNSNGRTYYASWAKGRFTISKTSSTTVTLQMTSLTAADTATYFCARSLSTPLWGPGTLVTVSS VL: DIVMTQTPFSVEAAVGGTVTIKCQASQSISSYLSWYRQKPGQPPKLLIYRASTLASGVPSRFKGSGSGTQFTLTISDLECADAATYYCQSYDDSSSNNFFYGFGGGTEVVVR",binds,binds
"1D2 (antibody, IgG1, V domains shown, Rabbit monoclonal IgG1) VH: QSLEESGGGLVQPEGSLTLTCTASGFTLNNYYICWVRQAPGKGLEWIACIDNVNGRTYYASWAKGRFTISRTSSTTVTLQMTSLTAADTATYFCARSLSTPLWGPGTLVTVSS VL: DIVMTQTPFSVEAAVGGTVTIKCQASQSISSYLSWYQQKPGQPPKLLIYRASPLASGVPSRFKGSGSGTQFTLTISDLECADAATYYCQSYDDSSSNNFFYGFGGGTEVVVR",binds,binds
"4A15 (antibody, IgG1, V domains shown, Rabbit monoclonal IgG1) VH: QSLEESGGGLVQPEGSLTLTCTASGVTLTNYYICWVRQAPGKGLEWIGCIDNVNGRTYYASWAKGRFTISKASSTTGTLQMTSLTAADTATYFCARSLATPLWGPGTLVTVSS VL: DIVMTQTPASVEAAVGGTVTIKCQASQNINSYLAWYQQKPGQPPKLLIYRASTLASGVPSRFKGSGSGTEFTLTISDLECADAATYYCQSYDDSRSISFFYAFGGGTEVVVK",binds,binds

# Other lines, results leading:
binding result [1],binding result [2],Binder
binds,binds,"1C18 (antibody, IgG1, V domains shown, Rabbit monoclonal IgG1) VH: QSLEESGGGLVQPEGSLTLTCTASGFTLTNYYICWVRQAPGKGLEWIACIDNANGRTYYATWAKGRFTISKTSSTTVTLQMPSLTAADTATYFCARSLSTNLWGPGTLVTVSS VL: DIVMTQTPASVEAAVGGTVTIKCQASQSISSWLSWYQQKPGQPPKLLLYRATTLASGVPSRFKGSGSGTQFTLTISDLECADAATYYCQSYDDSSSSNFFYAFGGGTEVVVR"
binds,binds,"7M5 (antibody, IgG1, V domains shown, Rabbit monoclonal IgG1) VH: QSLEESGGRLVTPGGSLTLTCTVSGIDLSSHAMIWVRQAPGEGLEWIGTIGSRDTIYYASWAKGRFTISKTSSTTMDLKMTSLTIEDTATYFCVRNALWGPGTLVTVSS VL: DVVMTQTPASVSEPVGGTVTIKCQASQSIRNELFWWQQKPGQPPKLLIYAASKLASGVPSRFSGSGSGTEFTLTISDLECADAATYYCQCSYVSSSGTYGNVFGGGTEVVVK"
binds,binds,"5I9 (antibody, IgG1, V domains shown, Rabbit monoclonal IgG1) VH: QSLEESGGRLVTPGGPLTLTCTVSGFSLSSYDMSWVRQAPGKGLEWIGYIATDGRPYYASWAKGRFTISKPSSTTVDLKITSPTTEDTATYFCVRGGYAGGLWGPGTLVTVSS VL: AAVLTQTPSPVSAAVGGTVSISCQSSKSVYNNNWLAWYQQKPGQRPKLLIYDASTLDSGVSSRFKGSGSGTQFTLTISDVQCDDGATYYCVGGYSSRSDNGFGGGTEVVVK"
binds,binds,"7F15 (antibody, IgG1, V domains shown, Rabbit monoclonal IgG1) VH: QEQLKESGGGLVAPGGTLTLTCAVSGFSLSSYNMGWVRQAPGEGLEYIGIIGASDSALYASWAKGRFTISKTSTTVDLKITSPTTEDTATYFCARGGLGLSTGFALWGPGTLVTVSS VL: AAVLTQTPSPVSAAVGGTVSISCQSSQSVWHNDYLSWYQQKPGQPPKLLIYGASTLASGVPSRFKGSGSGTQFSLTISGVQCDDAATYYCAGGYGRSSENGFGGGTEVVVK"
binds,binds,"1H17 (antibody, V domains shown) VH: QEQLVESGGGLVKPGASLTLTCKASGFSFSSGQLMCWVRQAPGKGLEWIACIGSGSNAISTFYASWAQGRFTISKSSSTTVTLQLTSLTAADTATYFCARVGSDDYGDSDVFDPWGPGTLVTVSS VL: AAVLTQTPSPVSAAVGGTVSASCQSSKSVYNKNWLSWFQQKPGQPPKLLIYGASTLASGVPSRFKGSGSGTQFTLTISDVQCDDAATYYCAGGYSSSSDTFAFGGGTEVVVKG"
